Laboratory results reported in publication PMC12147903.

What was measured:
[1] = biological target: T1, leucine-rich repeat-containing G-protein coupled receptor 4 (Lgr4) (mouse (endogenous in MIN6)) (UniProt A2ARI4)
T1 sequence: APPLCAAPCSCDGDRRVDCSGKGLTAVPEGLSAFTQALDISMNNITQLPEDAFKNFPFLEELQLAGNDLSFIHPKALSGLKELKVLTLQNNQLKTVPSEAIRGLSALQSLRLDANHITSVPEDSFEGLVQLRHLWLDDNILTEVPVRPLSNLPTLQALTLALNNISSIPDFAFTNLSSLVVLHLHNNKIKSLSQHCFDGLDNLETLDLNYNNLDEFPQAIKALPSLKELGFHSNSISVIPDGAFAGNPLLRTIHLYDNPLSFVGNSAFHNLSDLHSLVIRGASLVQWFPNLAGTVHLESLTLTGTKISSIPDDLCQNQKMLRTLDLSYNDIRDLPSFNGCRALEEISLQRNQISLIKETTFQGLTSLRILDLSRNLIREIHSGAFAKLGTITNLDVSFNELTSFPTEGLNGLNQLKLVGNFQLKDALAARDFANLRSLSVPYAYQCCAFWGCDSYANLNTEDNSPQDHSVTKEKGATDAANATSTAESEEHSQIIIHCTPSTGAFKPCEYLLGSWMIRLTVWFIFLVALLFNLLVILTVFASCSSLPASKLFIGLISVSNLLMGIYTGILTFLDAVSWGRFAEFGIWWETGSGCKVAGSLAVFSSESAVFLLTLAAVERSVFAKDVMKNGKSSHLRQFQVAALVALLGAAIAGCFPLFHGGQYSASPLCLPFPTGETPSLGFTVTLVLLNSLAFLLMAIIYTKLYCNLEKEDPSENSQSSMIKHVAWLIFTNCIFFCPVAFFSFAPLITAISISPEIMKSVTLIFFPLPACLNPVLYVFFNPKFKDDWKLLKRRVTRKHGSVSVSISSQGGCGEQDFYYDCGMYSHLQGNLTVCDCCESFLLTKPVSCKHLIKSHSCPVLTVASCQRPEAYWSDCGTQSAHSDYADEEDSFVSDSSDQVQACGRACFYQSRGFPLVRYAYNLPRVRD

[2] = biological target: E3 ubiquitin ligase zinc RING finger 3 (Znrf3) (mouse (endogenous in MIN6)) (UniProt Q5SSZ7)
Sequence of UniProt Q5SSZ7 (Q5SSZ7 53-913): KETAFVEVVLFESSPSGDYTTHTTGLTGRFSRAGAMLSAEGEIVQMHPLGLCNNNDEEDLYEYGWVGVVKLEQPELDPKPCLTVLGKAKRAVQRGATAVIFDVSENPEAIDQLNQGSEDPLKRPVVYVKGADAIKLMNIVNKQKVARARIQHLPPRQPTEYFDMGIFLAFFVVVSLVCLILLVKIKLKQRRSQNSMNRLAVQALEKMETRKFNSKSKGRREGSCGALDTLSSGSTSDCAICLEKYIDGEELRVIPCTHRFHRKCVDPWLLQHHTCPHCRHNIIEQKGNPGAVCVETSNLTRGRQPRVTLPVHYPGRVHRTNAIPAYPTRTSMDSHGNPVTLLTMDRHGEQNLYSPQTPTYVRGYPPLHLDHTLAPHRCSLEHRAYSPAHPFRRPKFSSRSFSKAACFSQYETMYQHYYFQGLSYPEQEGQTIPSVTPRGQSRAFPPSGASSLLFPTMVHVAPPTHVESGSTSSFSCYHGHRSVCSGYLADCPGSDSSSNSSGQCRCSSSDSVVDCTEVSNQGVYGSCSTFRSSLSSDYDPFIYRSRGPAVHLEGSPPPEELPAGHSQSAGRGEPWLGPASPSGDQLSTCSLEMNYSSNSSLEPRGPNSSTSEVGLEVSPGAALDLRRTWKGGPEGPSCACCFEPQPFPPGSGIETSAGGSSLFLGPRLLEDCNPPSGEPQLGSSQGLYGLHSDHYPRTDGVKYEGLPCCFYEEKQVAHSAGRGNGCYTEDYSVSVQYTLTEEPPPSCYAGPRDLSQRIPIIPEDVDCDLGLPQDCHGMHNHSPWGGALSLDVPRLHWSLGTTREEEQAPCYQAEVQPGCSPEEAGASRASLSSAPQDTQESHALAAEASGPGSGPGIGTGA

Sequence of human RSPO1 (Q2MKA7 21-263): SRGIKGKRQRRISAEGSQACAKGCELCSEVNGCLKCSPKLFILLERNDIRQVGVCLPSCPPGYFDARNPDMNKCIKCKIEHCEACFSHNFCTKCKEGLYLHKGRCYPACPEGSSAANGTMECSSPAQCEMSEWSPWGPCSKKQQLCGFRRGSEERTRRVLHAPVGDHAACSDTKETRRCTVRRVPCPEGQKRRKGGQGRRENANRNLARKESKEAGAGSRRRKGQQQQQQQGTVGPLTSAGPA

- MIN6 cell number after 24 h of incubation with increasing doses of human RSPO1, against controls [1]: 2.08 fold
- MIN6 cell number after 24 h of incubation with increasing doses of human RSPO1, against controls [2]: 2.08 fold
Substance: human RSPO1 (from UniProt Q2MKA7 21-263) (ligand)
